Results taken from article PMC9517163.

Biological target: minke whale ACE2, mFc-tagged (minke whale)
Experiment: SPR

“SARS-CoV-2 receptor-binding domain (RBD), prototype (from UniProt P0DTC2) (domain or fragment)” showed a Kd of 156 nM.
